# Laboratory results reported in paper PMC10275869 (Nature Communications, 2023).
# B1: 5B3 (human IgG1) (antibody, V domains shown)
# VH: EVQLVESGGGLVKPGGSLKLSCAASGFTFSSYDMSWVRQTPEKRLEWVAMISSGGSYSYYPDSVKGRFTISRDNAKNTLYLQMSSLRSEDTAMYYCARQGDYAWFAYWGQGTLVTVSS
# VL: DIQMTQSPASQSASLGESVTITCLASQTIGTWLAWYQQKPGKSPQLLIYAATSLADGVPSRFSGSGSGTKFSFKISSLQAEDFVSYYCQQFYSTPFTFGGGTKLEIK
# B2: 1F5 (human IgG1) (antibody, V domains shown)
# VH: DVQLQESGPGLVKPSQSLSLTCSVTGYSITSDYYWNWIRQFPGNKLEWMGYVTYDGSNNYNPSLKNRISITRDSSKNQFFLKLNSVISEDTATYYCARFGSSYWAMDYWGQGTSLTVSS
# VL: QIVLTQSPAIMSASLGEAITLTCSASSSVSYMHWYQQKSGTSPKLLIYSTSNLASGVPSRFSGSGSGTFYSLTISSVEAEDAADYYCHQWYSYPWTFGGGTKLEIK
# B3: mAb66 (human IgG1) (antibody, V domains shown)
# VH: ETGSGGGLVKPGGTLTLTCKASGFTLSSYWMCWVRQAPGKGLELIACLYTNGATTWYASWVNGRFAISRSTSRNTVDLNMTSLTAADTATYFCARGSGSGWSWFNIWGPGTLVTVSS
# VL: TGVMTQTPASVEAAVGGTVTIKCQASQNIISSLAWYQQKPGQRPKLLIYYASTLASGVPSRFKGSGSGTQFTLTISDLECADAATYYCQSYYYSGITYGNAFGGGTEVVVK
# B4: 12B2 (human IgG1) (antibody, V domains shown)
# VH: QVQLKESGPGLVAPSQSLSITCTVSGFSLASYGVHWVRQPPGKGLEWLGVIWTGGSTNYNSALMSRLSINRDNSKSQVFLKLNSLQTDDTAIYYCARDRGYGYGGFAYWGQGTLVTVSA
# VL: DIQMTQSPASLSASVGETVTITCRASENIYSYLAWYQHKQGKSPQLLVYNAKSLAEGVPSRFSGSGSGTQFSLKINSLQPEDFGSYYCQHHYGTPWTFGGGTKLEIK
# Target: LayV F clamp2 (prefusion Langya virus fusion glycoprotein ectodomain stabilised with the clamp2 molecular … (Langya virus (GenBank UUV47205.1), stabilised, N-linked glycans at N65 and N459))
# Test: ELISA
# Conditions: both partners purified
row,Binder,binding result
1,B1,no binding (tested: 50 μg/mL)
2,B2,no binding (tested: 50 μg/mL)
3,B3,no binding (tested: 50 μg/mL)
4,B4,no binding (tested: 50 μg/mL)

# Target: T1, prefusion clamp2 stabilized NiV F (Nipah virus, strain  (Q9IH63 …, UniProt Q9IH63, stabilised))
# T1 construct: also called Nipah virus F
# Test: ELISA
# Conditions: both partners purified
row,Binder,binding result
1,B1,binds
2,B2,binds
3,B3,binds
4,B4,binds
